In PMC4349660:

Key:
[1] = target: Glycophorin A, native, on intact unmodified human erythrocytes (human (endogenous in erythrocytes)) (UniProt P02724); experiment: backscattering interferometry (BSI); free solution, label-free; intact erythrocytes at 0.1% haematocrit in 0.01% BSA-PBS, PfEBA175 dilution series up to 1 μM, 1 h at room temperature; reference: neuraminidase-treated erythrocytes, subtracted; square hyperbolic fit
[2] = target: Basigin, native, on intact unmodified human erythrocytes (human (endogenous in erythrocytes)); experiment: backscattering interferometry (BSI); free solution, label-free; intact erythrocytes at 0.1% haematocrit in 0.01% BSA-PBS, PfRH5 dilution series up to 4.5 μM, 1 h at room temperature; reference: erythrocytes pre-incubated with 10 μg/mL anti-BSG antibody MEM-M6/6, subtracted; square hyperbolic fit

| Substance | Kd [1] | Kd [2] |
| --- | --- | --- |
| PfEBA175, entire ectodomain, monomeric Cd4-tagged recombinant protein (ligand) | 50 nM | – |
| PfRH5, entire ectodomain, Cd4-tagged monomer (ligand) | – | 1100 nM |
